Source: patent US20200317768A1 (published 2020)

How the values were obtained:
Assay in all cases: SPR (BIACORE), antibody captured on chip, FcγR as analyte, 25 C; KD of SG1 divided by KD of the variant
[1] = target: T1, cynomolgus monkey FcγRIIa1 extracellular domain, His-tagged (cynomolgus monkey)
T1 construct: also called cyno FcγRIIa1; FcgRIIa1; not shown: His-tag added to the C-terminus
T1 chain: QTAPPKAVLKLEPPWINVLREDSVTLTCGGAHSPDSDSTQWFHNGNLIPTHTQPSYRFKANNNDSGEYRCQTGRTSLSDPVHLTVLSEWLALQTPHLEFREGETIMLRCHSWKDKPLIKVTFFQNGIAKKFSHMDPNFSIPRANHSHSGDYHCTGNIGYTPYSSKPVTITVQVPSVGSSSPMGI
Procedure: (§1) After the measurement, the antibody captured on the chip was washed off by allowing reaction with 10 mM glycine-HCl, pH1.5 and 25 mM NaOH so that the chip was regenerated and used repeatedly. The sensorgrams obtained as measurement results were analyzed by the 1:1 Langmuir binding model using the BIACORE® Evaluation Software to calculate the binding rate constant ka (L/mol/s) and dissociation rate constant kd (l/s), and the dissociation constant KD (mol/L) was calculated from these values. […] Regarding such interactions, KD values were calculated using the following 1:1 binding model described in BIACORE® T100 Software Handbook BR1006-48 Edition AE.
(§2) The behavior of interacting molecules according to the 1:1 binding model on BIACORE® can be described by Equation 1: Req=C·R max/(KD+C)+RI, wherein, Req is a plot of steady-state binding levels to analyte concentration. C is concentration, RI is bulk refractive index contribution in the sample, and Rmax is analyte binding capacity of the surface. When this equation is rearranged, KD can be expressed as Equation 2: KD=C·Rmax/(Req−RI)−C. KD can be calculated by substituting the values of Rmax, RI, and C into Equation 1 or Equation 2. From the current measurement conditions, RI=0, C=2 μmol/L can be used.

[2] = target: T2, human FcγRIIaH extracellular domain, His-tagged (human, UniProt P12318 34-217)
T2 construct: also called human FcγRIIa (type H); FcgRIIaH; not shown: His-tag added to the C-terminus
T2 sequence: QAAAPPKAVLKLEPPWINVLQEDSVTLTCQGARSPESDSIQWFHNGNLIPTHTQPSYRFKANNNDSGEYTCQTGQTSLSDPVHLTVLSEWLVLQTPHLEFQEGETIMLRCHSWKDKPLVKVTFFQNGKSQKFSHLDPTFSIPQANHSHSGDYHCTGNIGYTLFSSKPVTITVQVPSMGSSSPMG
Procedure: as §1, §2

[3] = target: T3, cynomolgus monkey FcγRIIb extracellular domain, His-tagged (cynomolgus monkey)
T3 construct: also called cyno FcγRIIb; cynoFcγRIIb; not shown: His-tag added to the C-terminus
T3 chain: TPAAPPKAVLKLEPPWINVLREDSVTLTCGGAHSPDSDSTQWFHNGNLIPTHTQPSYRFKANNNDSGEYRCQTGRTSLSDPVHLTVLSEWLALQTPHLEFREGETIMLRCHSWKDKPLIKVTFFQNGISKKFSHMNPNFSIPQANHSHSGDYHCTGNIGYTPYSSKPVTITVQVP
Procedure: as §1, §2

[4] = target: T4, human FcγRIIIaV extracellular domain, His-tagged (human, UniProt P08637 17-208)
T4 construct: also called human FcγRIIIa (allotype V158); FcgRIIIaV; not shown: His-tag added to the C-terminus
T4 sequence (P08637 17-208 F176V): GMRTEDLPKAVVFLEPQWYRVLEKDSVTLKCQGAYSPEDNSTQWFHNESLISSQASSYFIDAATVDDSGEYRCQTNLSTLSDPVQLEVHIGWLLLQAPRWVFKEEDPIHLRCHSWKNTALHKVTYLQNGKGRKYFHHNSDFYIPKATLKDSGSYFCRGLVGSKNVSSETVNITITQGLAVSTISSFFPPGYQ
Procedure: as §1, §2

[5] = target: T5, cynomolgus monkey FcγRIIa3 extracellular domain, His-tagged (cynomolgus monkey)
T5 construct: also called cyno FcγRIIa3; FcgRIIa3; not shown: His-tag added to the C-terminus
T5 chain: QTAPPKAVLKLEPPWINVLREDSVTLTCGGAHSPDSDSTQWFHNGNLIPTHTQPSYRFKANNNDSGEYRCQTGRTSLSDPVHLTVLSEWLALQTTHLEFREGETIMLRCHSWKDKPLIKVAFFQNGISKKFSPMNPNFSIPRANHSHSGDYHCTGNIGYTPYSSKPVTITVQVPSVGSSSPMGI
Procedure: as §1, §2

[6] = target: T6, human FcγRIIb extracellular domain, His-tagged (human, UniProt P31994 43-217)
T6 construct: also called FcgRIIb (human); not shown: His-tag added to the C-terminus
T6 sequence: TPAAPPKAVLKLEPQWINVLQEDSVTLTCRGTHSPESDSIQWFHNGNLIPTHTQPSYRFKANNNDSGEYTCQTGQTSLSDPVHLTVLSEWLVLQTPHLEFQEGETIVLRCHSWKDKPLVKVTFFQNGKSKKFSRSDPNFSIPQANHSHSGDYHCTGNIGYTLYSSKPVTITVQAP
Procedure: as §1, §2

[7] = target: T7, human FcγRIIaR extracellular domain, His-tagged (human, UniProt P12318 34-217)
T7 construct: also called human FcγRIIa (type R); FcgRIIaR; not shown: His-tag added to the C-terminus
T7 chain: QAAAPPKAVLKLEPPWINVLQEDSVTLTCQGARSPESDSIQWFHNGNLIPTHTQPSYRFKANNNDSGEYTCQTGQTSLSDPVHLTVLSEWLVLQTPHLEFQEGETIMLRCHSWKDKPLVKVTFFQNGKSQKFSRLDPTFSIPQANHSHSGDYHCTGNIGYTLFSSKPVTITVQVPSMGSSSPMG
Procedure: as §1, §2

[8] = target: T8, cynomolgus monkey FcγRIIIaS extracellular domain, His-tagged (cynomolgus monkey, UniProt A3RFZ7 21-206 (rhesus entry))
T8 construct: also called cyno FcγRIIIaS; FcgRIIIaS; not shown: His-tag added to the C-terminus
T8 sequence (A3RFZ7 21-206): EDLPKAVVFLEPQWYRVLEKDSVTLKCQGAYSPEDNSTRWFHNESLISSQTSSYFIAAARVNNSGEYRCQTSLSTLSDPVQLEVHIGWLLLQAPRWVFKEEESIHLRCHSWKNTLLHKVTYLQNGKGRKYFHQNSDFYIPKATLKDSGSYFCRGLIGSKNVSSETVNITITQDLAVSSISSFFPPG
Procedure: as §1, §2

[9] = target: T9, cynomolgus monkey FcγRIIa2 extracellular domain, His-tagged (cynomolgus monkey)
T9 construct: also called cyno FcγRIIa2; FcgRIIa2; not shown: His-tag added to the C-terminus
T9 chain: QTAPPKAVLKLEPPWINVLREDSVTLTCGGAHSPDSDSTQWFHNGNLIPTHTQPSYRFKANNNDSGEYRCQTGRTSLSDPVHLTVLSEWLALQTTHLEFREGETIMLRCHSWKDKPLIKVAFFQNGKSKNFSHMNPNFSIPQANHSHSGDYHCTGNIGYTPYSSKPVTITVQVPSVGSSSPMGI
Procedure: as §1, §2

B1: M103205H795-MY329 / M103202L889-SK1 (antibody, human IgG1, kappa)
heavy: QVTLKESGPVLVKPTETLTLTCTVSGIDLSHDDISWVRQAPGKGLEWVGIISYAGSTYYASWAKGRLTISKDTSKNQVVLTMTNMDPVDTATYYCARGVPAYSHGGDLWGQGTLVTVSSASTKGPSVFPLAPSSKSTSGGTAALGCLVKDYFPEPVTVSWNSGALTSGVHTFPAVLQSSGLYSLSSVVTVPSSSLGTQTYICNVNHKPSNTKVDKKVEPKSCDKTHTCPPCPAPELLDGPSVFLFPPKPKDTLMISRTPEVTCVVVDVSDEDPEVKFNWYVDGVEVHNAKTKPREELYNSTYRVVSVLTVLHQDWLNGKEYKCKVSNKALPKPIEKTISKAKGQPREPQVYTLPPSREEMTKNQVSLTCLVKGFYPSDIAVEWESNGQPENNYKTTPPVLDSDGSFFLYSKLTVDKSRWQQGNVFSCSVMHEALHNHYTQKSLSLSP
light: DIVMTQSPATLSLSPGERATLSCTSSQSVYHANWLSWFQQKPGQPPKLLIYWASTLAYGVPSRFSGSGSGTDFTLTISSLQPEDAATYYCAGGYGGGRYAFGQGTKVEIKRTVAAPSVFIFPPSDEQLKSGTASVVCLLNNFYPREAKVQWKVDNALQSGNSQESVTEQDSKDSTYSLSSTLTLSKADYEKHKVYACEVTHQGLSSPVTKSFNRGEC
notes: Fc variant made by introducing the substitutions into M103205H795-SG1; the list of substitutions runs over r151c2 and r152c2; Expressed with M103202L889-SK1 as light chain
KD fold for cynoFcgRs (SG1 = 1) [1]: 1.7 fold | KD fold for humanFcgRs (SG1 = 1) [2]: 2.6 fold | KD fold for cynoFcgRs (SG1 = 1) [3]: 3.1 fold | KD fold for humanFcgRs (SG1 = 1) [4]: 0.13 fold | KD fold for cynoFcgRs (SG1 = 1) [5]: 4.6 fold | KD fold for humanFcgRs (SG1 = 1) [6]: 28.8 fold | KD fold for humanFcgRs (SG1 = 1) [7]: 5.2 fold | KD fold for cynoFcgRs (SG1 = 1) [8]: 0.16 fold | KD fold for cynoFcgRs (SG1 = 1) [9]: 1.6 fold
